Measured values taken from patent publication US20210292393A1 (published 2021).
Where a chain is given by its changes, count along the chain named.

B1: anti-SARS-CoV-2 antibody 1075 (antibody, V domains shown)
VH: QVQLVQSGAEVKKPGASVKVSCKVSGYTLIELSMHWVRQAPGKGLEWMGGFDPEDGETIYAQKFQGRVTMTEDTSTDTAYMELSSLRSEDTAVYYCATEWAYYGSGSYLGYWGQGTLVTVSS
VL: EIVMTQSPATLSVSPGERATLSCRASQSVSSNLAWFQQKPGQAPRLLIYGASTRVTVIPARFSGSGSGTEFTLTISSLQSEDFAVYYCQQYNNWPRTFGQGTKVEIK
B2: anti-SARS-CoV-2 antibody 966 (antibody, V domains shown)
VH: QVQLVESGGGVVQPGRSLRLSCAASEFTFSSYGMHWVRQAPGKGLEWVAVISHDGSNEYYADSVKGRFTISRDNSKNTLYLQMNSLRAEDTAVYYCAKWRGPHRGYYDRSGYYLGSSRDDYWGQGTLVTVSS
VL: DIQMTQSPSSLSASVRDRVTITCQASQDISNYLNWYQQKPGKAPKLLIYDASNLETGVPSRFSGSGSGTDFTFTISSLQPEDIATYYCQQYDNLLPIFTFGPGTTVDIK
B3: anti-SARS-CoV-2 antibody 989 (antibody, V domains shown)
VH: QVQLQESGPGLVKPSQTLSLTCTVSGGSISSGSYYWSWIRQPAGKGLEWIGRIYTSGSTNYNPSLKSRVTMSVDTSKNHFSLKLRSVTAADTAVYYCARGIAVAGDDDYYYYYGLDVWGQGTTVTVSS
VL: SYELTQPPSVSVSPGQTARITCSGDALPKQYAYWYQQKPGQAPVMVINKDSERPSGIPERFSGSSSGTTVTLTISGVQAEDEADYYCHSADSSGTYWVFGGGTKLTVL
B4: antibody 476 (antibody, V domains shown)
VH: QVQLVQSGSELKKPGASVKVSCKASGYTFTSYAMNWVRQAPGQGLEWMGWINTNTGNPTYAQGFTGRFVFSLDTSVSTAYLQISSLKAEDTGVYYCARDHELPNSSSWFGHFEYWGQGTLVTVSS
VL: B3 VL with P39A, M45L, N48Y, P54R, H88Q, Y96S, W97V
B5: antibody 456 (antibody, V domains shown)
VH: QVQLQQWGAGLLKPSETLSLTCAVYGGSFSGYYWSWIRQPPGKGLEWIGEINHSGSTNYNPSLKSRVTISVDTSKNQFSLKLSSVTAADTAVYYCARDGSGSYYLSYYFDYWGQGTLVTVSS
VL: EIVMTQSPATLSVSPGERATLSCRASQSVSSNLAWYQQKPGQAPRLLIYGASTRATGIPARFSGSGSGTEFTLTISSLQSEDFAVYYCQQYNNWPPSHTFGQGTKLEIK
B6: anti-SARS-CoV-2 antibody 1037 (antibody, V domains shown)
VH: QITLKESGPTLVKPTQTLTLTCTFSGFSLSTSGVGVGWIRQPPGKALEWLALIYWDDDKRYSPSLKSRLTITKDTSKNQVVLTMTNMDPVDTATYYCAHHTITRINDYWGQGTLVTVSS
VL: QSALTQPASVSGSPGQSITISCTATSSDVGAYNYVSWYQQHPGKAPKLMIYDVSKRPSGVSNRFSGSKSGNTASLTISGLQAEDEADYYCSSYTSSSTVFGGGTKLTVL
B7: antibody 475 (antibody, V domains shown)
VH: QVQLVESGGGVVQPGRSLRLSCAASGFTFSSYAMHWVRQAPGKGLEWVTFISHEGSNKYYADSVKGRFTISRDNSKNTLYLQMNSLRAEDTAVYYCARTFEYSSSSATGDFDYWGQGTLVTVSS
VL: QSVLTQPPSVSGAPGQRVTISCTGSSSNIGAGYDVHWYQQLPGTAPKLLIYGNSNRPSGVPDRFSGSKSGTSASLAITGLQAEDEADYYCQSYDSSLSGVVFGGGTKLTVL
B8: anti-SARS-CoV-2 antibody 1091 (antibody, V domains shown)
VH: EVQLVESGGGLVKPGGSLRLSCAASGFPFITYSMNWVRQAPGKGLEWVSSISRNSDYIYYADSVRGRVTISRDNAENSLYLQMHSLRAEDTAVYYCARDVVRSGNYYIPRHGMDVWGRGTTVTVSS
VL: QSVLTQPPSASGTPGQRVTISCSGTSSNIGSNTVNWYQQLPETAPKLLIYGTDQRPSGVPDRFSGSKSGTSASLAISRLQSEDEADYYCATRDDSLSGPVFGGGTQLTVL
B9: anti-SARS-CoV-2 antibody 1015 (antibody, V domains shown)
VH: EVQLVESGGGLVQPGGSLRLSCAASGFTFSSYWMHWVRQAPGKGLVWVSHINSDGSSTSYADSVKGRFTISRDNAKNTLYLQMNSLRAEDTAVYYCARGLRYFDLDVWGQGTTVTVSS
VL: QSVLTQPPSVSEAPRQRVTISCSGSSSNIGNNAVNWYQQLPGKAPKLLIFYDDLLPSGVSDRFSGSKSGTSASLAISGLQSEDEADYYCAAWDDSLNGGVFGGGTKLTVL
B10: anti-SARS-CoV-2 antibody 1081 (antibody, V domains shown)
VH: EVQLVQSGAEVKKPGESLKISCKRSGYSFTTYWIGWVRQMPGKGLEWMGSIYPGDSDTRYSPSFQGQVTISADKSISTAYLQWSSLKASDTAMYYCASQEVPGYYYYMDVWGKGTTVTVSS
VL: DIQMTQSPSSLSASVGDRVTITCRASQSISSYLHWYQQKPGKAPKLLIYAASSLQSGVPSRFSGSGSGTDFTLTISSLQPEDFATYYCQQTYSTHTWTFGQGTKVEIK
B11: anti-SARS-CoV-2 antibody 1027 (antibody, V domains shown)
VH: EVQLVESGGGLVQPGGSLRLSCAASGFTVSSNYMSWVRQAPGKGLEWVSIIYSGGSTFYADSVKGRFTISRDSSKNTLYLQMSSLRAEDTAVYYCARDLDYYGMDVWGQGTTVTVSS
VL: DIQLTQSPSFLSAPVGDRVTITCRASQGISSYLAWYQQKPGKAPKLLIYGASTLQSGVPSRFSGSGSGTEFTLTISSLQPEDFATYYCQQLNSYQRFTFGPGTKVEIK
B12: antibody 477 (antibody, V domains shown)
VH: QVQLVESGGGVVQPGRSLRLSCAASGITFSSYAMHWVRQAPGKGLEWVAVISYDGSDKYHADSVKGRFAISRDNSKNTLYLQMNSLRAEDTAVYYCAKDKGIAVAGTGWIRPDPEYYFDYWGQGTLVTVSS
VL: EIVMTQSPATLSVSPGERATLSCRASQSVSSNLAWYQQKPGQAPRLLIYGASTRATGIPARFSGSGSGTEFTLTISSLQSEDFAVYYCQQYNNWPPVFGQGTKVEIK
B13: anti-SARS-CoV-2 antibody 1000 (antibody, V domains shown)
VH: EVQLVESGGGLVQPGRSLRLSCAASGFTFDDYAMHWVRQAPGEGLEWVSGISWNSGSIGYADSVKGRFTISRDNAKNSLYLQMNSLRAEDTALYYCAKDTRFSFGTIAAAVSGYGMDVWGQGTTVTVSS
VL: QSALTQPASVSGSPGQSITISCTGTSSDVGIFNLVSWYQQHPGKAPKLMIYEVTKRPSGVSNRFSGSKSGNTASLTISGLQAEDEADYYCCSYAGSYVFGTGTKVTVL
B14: antibody 482 (antibody, V domains shown)
VH: EVQLVESGGGLVQPGGSLRLSCAASGFTFSSYWMTWVRQAPGKGLEWVANIKQDGSEKYYVDSVKGRFTISRDNAKNSLYLQMNSLRAEDTAVYYCARGVGSWYLGFDYWGQGTLVTVSS
VL: NFMLTQPHSVSESPGKTVTISCTGSSGSIASNYVQWYQQRPGSAPTTVIYEDNQRPSGVPDRFSGSIDSSSNSASLTISGLKTEDEADYYCQSYDGSSYVFGTGTKVTVL
B15: anti-SARS-CoV-2 antibody 1012 (antibody, V domains shown)
VH: EVQVVESGGGLVQPGGSRRLSCTASGFTLRNYWMSWVRQAPGKGLEWVANIKQDGSEKYYVDSVKGRFTISRDNAKNSLYLQMDSLRAEDTAVYYCARGGRYCPGGSCPRWGRGTLVTVSS
VL: DIQMTQSPSSLSASVGDRVTITCQASQDISNFLNWYQLKPGEAPTLLIFDASKLETGVPSRFSGTGFGTDFTFTISSLQPEDTATYYCQQYDDLTSITLGQGTRLEIK
B16: anti-SARS-CoV-2 antibody 1193 (antibody, V domains shown)
VH: EVQLVESGGGLVQPGGSLRLSCAASGFTFSSYYMNWVRQAPGKGLEWVSYISSGSSIIYYADSVKGRFTISRDNAKNSLYLQMNSLRDEDTAVYYCARDSPLRYFDWQLGGGFDYWGQGTLVTVSS
VL: QSALTQPASVSGSPGQSITISCTGTSSDVGGYNYVSWYQQHPGKAPKLMIYDVSNRPSGVSNRFSGSKSGNTASLTISGLQAEDEADYYCSSYTSSSLWVFGGGTKLTVL
B17: antibody 470 (antibody, V domains shown)
VH: not shown
VL: B16 VL with G31S, Y34L, D52E, N55K, S91C, T94A, S95G, L98T, W99L
B18: antibody 454 (antibody, V domains shown)
VH: QVQLVQSGAEVKKPGASLKVSCKASGYIFTGYYMHWVRQAPGQGLEWMGWISPNSGGTKYAQKFQGRVTMTRDTSISTAYMELSRLRSDDSAVYYCAREPYYDILTGYYTPRRYLDYWGQGTLVTVSS
VL: B16 VL with G31D, A45V, N55H, S61T, Q81R, L98T, W99Y, G103T, L107V
B19: antibody 439 (antibody, V domains shown)
VH: QVQLVESGGGVVQPGRSLRLSCAASGFTFSSYAMHWVRQAPGKGLEWVAVISYDGSNKYYADSVKGRFTISRDNSKNTLYLQMNSLRAEDTAVYYCARPPRGGSYYPFDPWGQGTLVTVSS
VL: not shown
B20: antibody 446 (antibody, V domains shown)
VH: B19 VH with P100N, R101S, G103S, S104Y, Y105F, Y106G, P107Y, D109Q, P110H
VL: QSVLTQPPSVSGAPGQRVTISCTGSSSNIGAGYDVHWYQQLPGTAPKLLIYGNSNRPSGVPDRFSGSKSGTSASLAITGLQAEDEADYYCQSYDSSLSGFYVFGTGTKVTVL
B21: antibody 480 (antibody, V domains shown)
VH: B19 VH with S56N, A97V, P99T, P100N, R101S, G103S, S104Y, Y106A, P107A, P110Y
VL: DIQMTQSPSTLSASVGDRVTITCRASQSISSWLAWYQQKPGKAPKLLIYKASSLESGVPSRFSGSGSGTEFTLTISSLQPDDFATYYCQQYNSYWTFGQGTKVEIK

Key:
[1] = molecular target: SARS-CoV-2 spike protein (wild type), spike protein trimer (SARS-CoV-2, UniProt P0DTC2 14-1208)
[2] = molecular target: SARS-CoV-2 full-length spike protein on pseudotyped lentivirus (SARS-CoV-2, UniProt P0DTC2 14-1273); experiment: cell-based or functional assay
[3] = molecular target: spike protein of SARS-CoV-2 clinical isolate USA/WA/1/2020 (live virus) (SARS-CoV-2, UniProt P0DTC2 14-1273); experiment: cell-based or functional assay
[4] = molecular target: SARS-CoV-2 full length spike protein (wild type), expressed on the surface of transiently transfected CHO … (SARS-CoV-2, UniProt P0DTC2 14-1273)

Binder	Kd [1]	Pseudo-neutralization IC50 [2]	Live Virus Neutralization IC50 [3]	median fluorescence intensity, fold over isotype control [4]
B1	0.093 nM	0.039 µg/mL	0.011 µg/mL	–
B2	1.8 nM	0.021 µg/mL	> 10 µg/mL	–
B3	0.104 nM	0.19 µg/mL	1.5 µg/mL	–
B4	–	–	–	18.2 fold over isotype
B5	–	–	–	9.25 fold over isotype
B6	0.126 nM	0.025 µg/mL	0.009 µg/mL	–
B7	–	–	–	32.2 fold over isotype
B8	0.054 nM	0.016 µg/mL	0.074 µg/mL	–
B9	0.096 nM	0.011 µg/mL	0.032 µg/mL	–
B10	0.093 nM	0.012 µg/mL	4.6 µg/mL	–
B11	0.205 nM	0.01 µg/mL	0.005 µg/mL	–
B12	–	–	–	30.7 fold over isotype
B13	0.092 nM	0.006 µg/mL	0.013 µg/mL	–
B14	–	–	–	2.31 fold over isotype
B15	0.139 nM	0.006 µg/mL	0.028 µg/mL	–
B16	0.178 nM	0.69 µg/mL	0.31 µg/mL	–
B17	–	–	–	20.7 fold over isotype
B18	–	–	–	29.6 fold over isotype
B19	–	–	–	8.2 fold over isotype
B20	–	–	–	7.99 fold over isotype
B21	–	–	–	9.77 fold over isotype
